Measured values from the RNAGym collection of RNA variant scans (doi:10.7554/elife.80360).

B1: HDV Ribozyme (parent)
chain: GGCCGGCAUGGUCCCAGCCUCCUCGCUGGCGCCGGCUGGGCAACAUUCCGAGGGGACCGUCCCCUCGGUAAUGGCGAAUGGGACCCA

Variants of: B1
Test: self-cleavage, relative activity (ratio to wild type); higher = more cleavage; co-transcriptional

Variant	self-cleavage
AGCCGGCAUGGUCCCAGCCUCCUCGCUGGCGCCGGCUGGGCAACAUUCCGAGGGGACCGUCCUCUCGGUAAUGGCGAAUGGGACCCA [G1A C63U]	0.147
GGCCGGCAUGGUCCCAGCCUCCUCGCUGGCGCCGGCUGGGCAACAUUCCGAGGGGACCGUCCCCUCGGUAAUUGCGAAUGGGUCCCA [G73U A83U]	0.0462
GGCCGGCAUGGUCCCAGCCUCCUCGCUGGCGCCGGCUGGGCAACAUUCCGAGGGGACCGUCCCCGCGGUAAUGGCGAAUGGGUCCCA [U65G A83U]	0.571
GGCCGGCAUGGUCCCAGCCUCCUCGCUGGCGCCGGCUGGGCAACAUUCCGAGGGGACCGUCCCCUCGGUAAUGGCGAAUUGGAUCCA [G80U C84U]	0.164
GGCCGGCAUGGUCCCAGCCUCCUCGCUGGCGCCGGCUGGGCAACAUUCCGAGGGGACCGUCCCCUCGGUAAUGGCGAAUGCGACCCA [G81C]	0.268
GGCCGCCAUGGUCCCAGCCUCCUCGCUGGCGCCGGCUGGGCAACAUUCCGAGGGGACCGUCCCCUCGGUAAUGGCCAAUGGGACCCA [G6C G76C]	0.364
GGCCGGCAUGGUCCCAGCCUCCUCGCUGGCGCCGGCUGGGCAACAUUCCGAGGGGACCGUCACCUCGGUAAUGGCGAAUGGUACCCA [C62A G82U]	0.295
GGCCGGCAUGGUCCCAGCCUCCUCGCUGGCGCCGGCUGUGCAACAUUCCGAGGGGGCCGUCCCCUCGGUAAUGGCGAAUGGGACCCA [G39U A56G]	0.659
GGCCGGCAUGGUCCCAGCCUCCUCGCUGGCUCCGGCUGGGCAGCAUUCCGAGGGGACCGUCCCCUCGGUAAUGGCGAAUGGGACCCA [G31U A43G]	0.0475
GGCCGGCAUGGUCCCAGCCUCGUCGCUGGCGCCGGCUGGGCAACAUUCCGAGGGGACCGUCCCCUCGGUAAUGGCGCAUGGGACCCA [C22G A77C]	0.0426
GGCCGGCAUGGUCCCAGCCUCCUCGCUGGCGCCGGCUGGGCAACAUUCCGAGGGGACCGUCCCCUCGGUAAUGCCGAAUGGGACCCA [G74C]	0.213
GGCCGGCAUGGUCCCAGCCUCCUCGCUGGCGCCGGCUGGGCAACAUUCCGAGGGGACCGUCCCCUCGGUAGCGGCGAAUGGGACCCA [A71G U72C]	0.705
GGCCAGCAUGGUCCCAGCCUCCUCGCUGGCGCGGGCUGGGCAACAUUCCGAGGGGACCGUCCCCUCGGUAAUGGCGAAUGGGACCCA [G5A C33G]	0.0615
GGCCGGCAUGGUCCCAGCCUCCUCGCUGGCCCCGGCUGGGCAACAUUCCGAGGGGACCGUCCCCUCGGUAAUGGCGUAUGGGACCCA [G31C A77U]	0.0489
GGCCGGCAUGGUCCCUGCCUCCUCGUUGGCGCCGGCUGGGCAACAUUCCGAGGGGACCGUCCCCUCGGUAAUGGCGAAUGGGACCCA [A16U C26U]	0.831
GGCCGGCAUGGUCCCAGCCUCCUCGCUGGCGCCGGCUGGUCAACAUUCCGAGGGGACCGUCCCCUCGGUAAGGGCGAAUGGGACCCA [G40U U72G]	0.23
GGCCGGCAUGGUCCCAGCCUCCUCGCUGGCGCCGGCUGGGCAACGUUCCGAGGGGACCGUCCCCUCGGUAAUGACGAAUGGGACCCA [A45G G74A]	0.517
GGCCGGCAUGGUCCCAGCCUCCUCGCUGGCGCCUGCUGGGCAACAUUCCGAGGAGACCGUCCCCUCGGUAAUGGCGAAUGGGACCCA [G34U G54A]	0.041
GGCCCGCAUGGUCCCAGCCUCCUCGCUGGCGCCGGCUGGGCAACAUUCCGAGGGGACCGUCCCCUCGGUAAUGGCGAAUGGAACCCA [G5C G82A]	0.123
GGCCGGCAUGGUCCCAGCCUCCUCGCUGGCGCCGGCUGGGUAACAUUCCGAUGGGACCGUCCCCUCGGUAAUGGCGAAUGGGACCCA [C41U G52U]	0.868
GGCCGGCAUGGUCCCAGGCUCCUCGCUGGCGCCGGCUGGGCAACAUUCCGAGGGGACCGUUCCCUCGGUAAUGGCGAAUGGGACCCA [C18G C61U]	0.0519
GGCCGGCAUGGUCACAGCAUCCUCGCUGGCGCCGGCUGGGCAACAUUCCGAGGGGACCGUCCCCUCGGUAAUGGCGAAUGGGACCCA [C14A C19A]	0.0639

Variant	self-cleavage
GGCCGGCAUGGUCCCAGCCUCCUCGCUGGCGCCGGCUGGGCAACAUUCCGAGGGGACCAUCUCCUCGGUAAUGGCGAAUGGGACCCA [G59A C62U]	1.22
GGCCGGCAUGGUCCCAGCCUCCUCGCUGGCGCCGGUUGGGCAACAUUCCGAGGGGACCGUCCCCUCGGUAAUGGCGAAUGCGACCCA [C36U G81C]	0.12
GGCUGGCAUGGUCCCAGCCUCCUCGCUGGCGCCGGCUGGGCAACGUUCCGAGGGGACCGUCCCCUCGGUAAUGGCGAAUGGGACCCA [C4U A45G]	0.862
GGCCGGCAUGGUCCCAGGCUCCUCGCUGGCGCCGGCUGGGCAACAUUCCGAGGGGACCGUCUCCUCGGUAAUGGCGAAUGGGACCCA [C18G C62U]	0.308
GGCCGGCAUGGUACCAGCCUCCUCGCGGGCGCCGGCUGGGCAACAUUCCGAGGGGACCGUCCCCUCGGUAAUGGCGAAUGGGACCCA [C13A U27G]	0.594
GGCCGGCAUGGUCCCAGCCUCCUCGAUGGCGCCGGGUGGGCAACAUUCCGAGGGGACCGUCCCCUCGGUAAUGGCGAAUGGGACCCA [C26A C36G]	0.196
GGCCGGCAUGGUCUCAGCCUCCUCGCUGGCGCCGGCUGGGCAACAUUCCGAGGGGACCGUCCCCUCGGUAAUGGCGAAUUGGACCCA [C14U G80U]	0.4
GGCCGGCAUGGUCCCAGCCUCCUCGCUGGCGCCGGCUGCUCAACAUUCCGAGGGGACCGUCCCCUCGGUAAUGGCGAAUGGGACCCA [G39C G40U]	0.487
GGCCGGCAUGGUCCCAGCCUCCUCGCUGGCGCCGGCUGGGCAACAUUCCGAGGGUACCGUCCCCUCGGUAAUGGAGAAUGGGACCCA [G55U C75A]	0.153
GGCCGGCAUGGUCCCAGCCUACUCGCUGGCGCCGGCUGGGCAACAUUCCGAGGGGACCGUCCCCUCGGUAAUGGGGAAUGGGACCCA [C21A C75G]	0.0346
GGCCGGCAUGGUCCCAGCCUCCUCGCUGGCGCCGGCUGGGCAACAUUCCGAGUGGUCCGUCCCCUCGGUAAUGGCGAAUGGGACCCA [G53U A56U]	0.956
GGCCGGCAUGGUCCCAGCCUCCUCGCUGGCGCCGGCUGGGCAACAUUCCGAGAGGACCGUCCCCUCGGUAAUGGCGAAUGGCACCCA [G53A G82C]	0.246
GGCCGGCAUGGUCCCAGCCUCCUCGCUGGCGCCGGCUGGGCAACAUUCCGAGGGGACCGUCCCCUCGGUAAUAGCGAAUGUGACCCA [G73A G81U]	0.18
GGCCGGCAUGGUCCCAGCCUCCUCGCUGGCGCCGGCUGGGCAAGAUUCCGAGGGGACCGUCCCCCCGGUAAUGGCGAAUGGGACCCA [C44G U65C]	0.597
GGCCGGCAUGGUCCCAGUCUCCUCGCUGGCGCCGGCUGGGCAACAUUCCGAGGGGACCGUCCCCUCGGUGAUGGCGAAUGGGACCCA [C18U A70G]	0.752
GGCCGGCAUGGUCCCAGCUUCCUCGCUGGCGCCGGCUGGGCAACCUUCCGAGGGGACCGUCCCCUCGGUAAUGGCGAAUGGGACCCA [C19U A45C]	0.0767
GGCCGGCAUGGUCCCAGCCUCCUCGCUGGCGCCUGCUGGGCAACAUUCCGAGGGGACCGUCCCCUCGGUAAUGGCAAAUGGGACCCA [G34U G76A]	0.231
GGACGGCAUGGUCCCAGCCUCCUCGCUGGCGCGGGCUGGGCAACAUUCCGAGGGGACCGUCCCCUCGGUAAUGGCGAAUGGGACCCA [C3A C33G]	0
GGCCGGCAUGAUCCCAGCCUCCUCGAUGGCGCCGGCUGGGCAACAUUCCGAGGGGACCGUCCCCUCGGUAAUGGCGAAUGGGACCCA [G11A C26A]	0.878
GGCCGGCAUAGUUCCAGCCUCCUCGCUGGCGCCGGCUGGGCAACAUUCCGAGGGGACCGUCCCCUCGGUAAUGGCGAAUGGGACCCA [G10A C13U]	0.179
GGCCGGCUUGGUCCCAGCCUCCUCGCUGGCGCCGGCUGGGCAACAUUCCGAGGGGACCGUCCCCUCGGUAAUGGGGAAUGGGACCCA [A8U C75G]	0.142
GGCCGGCAUGGUCCCAGCCUCCUCGCUGGGGCCGGCUGGGCAACAUUCCGAGGGGACCGUCCCCUCGGUAAUGGCGAAUGGGACCCC [C30G A87C]	0.122

Variant	self-cleavage
GGCCGGCAUGGUCCCAGCCUCCUCGCUGGCGCCGGCUGGGCAACAUUCCGAGAGGACCGUCCCCUCGGUAGUGGCGAAUGGGACCCA [G53A A71G]	0.941
GGCCGGCAUGGUCCCAGCCUCCUCGCUGGCGCCGGCGGGGCAACAUUCUGAGGGGACCGUCCCCUCGGUAAUGGCGAAUGGGACCCA [U37G C49U]	0.268
GCCCGGCAUGGUCCCAGCCUCCUCGCUGGCGCCGGCUGGGCAACAUUCCGAGGGGACCGUCCCCUCGGUAAUGGCGAAUGGGAUCCA [G2C C84U]	0.0181
GGCCGGCAUCGUCCCAUCCUCCUCGCUGGCGCCGGCUGGGCAACAUUCCGAGGGGACCGUCCCCUCGGUAAUGGCGAAUGGGACCCA [G10C G17U]	0.494
GGCCGGCAUGGUCCCAGCCUCCUCGCUGGGGCCGGCUGGGCAACAUUCCGAGGGGACCGACCCCUCGGUAAUGGCGAAUGGGACCCA [C30G U60A]	0.154
GGCCGGCAUGGUCCCAGCCUCCUCGCUGGCGCCGGCUGGGCAACAUUGCGAGGGGACCGUCCCCUCGGUAAUGGCGAAUGCGACCCA [C48G G81C]	0.185
GGCCGGCAUGUUCCUAGCCUCCUCGCUGGCGCCGGCUGGGCAACAUUCCGAGGGGACCGUCCCCUCGGUAAUGGCGAAUGGGACCCA [G11U C15U]	0.258
GGCCGGCAUGGUCCCAGCCUCCUCGCUGGCGCCGGCUGGGCAACAUUCCGAGGGGACGUUCCCCUCGGUAAUGGCGAAUGGGACCCA [C58G G59U]	0.946
GGCCGGCAUGGUCCCAGCCUCCUCGCUGUCGCCGGCUGGGUAACAUUCCGAGGGGACCGUCCCCUCGGUAAUGGCGAAUGGGACCCA [G29U C41U]	0.0432
GGCCGGAAUGGUCCCAGCCUCCUCGCUGGCGCCGGCUGGGCAACAUUCCCAGGGGACCGUCCCCUCGGUAAUGGCGAAUGGGACCCA [C7A G50C]	0.415
GGCCGGCAUGGUCCCAGCCUCCUCGCUGGCGCCGGCUGGGCAACAUGCCGAGGGGACCGUCCCCCCGGUAAUGGCGAAUGGGACCCA [U47G U65C]	0.923
GGCCGGCAUGGUCCCAGCCUCCUCGAUGGCGCCGGCUGGGCAACAUUACGAGGGGACCGUCCCCUCGGUAAUGGCGAAUGGGACCCA [C26A C48A]	0.941
GGCCGGCAUGGUCCCAGCCUCCUAGCUGGCGCCGGCUGGGCAACAUUCCGAGGGGACCGUCUCCUCGGUAAUGGCGAAUGGGACCCA [C24A C62U]	0.89
GGCCGGCAUGGUCCCAGCCUCCUCGCUGGCGCCGGCUGGGCAACAUUACGAGGGGACCGUACCCUCGGUAAUGGCGAAUGGGACCCA [C48A C61A]	1.02
GGCCGGCAUGGUCCCCGCCUCCUCGCUGGCGCCUGCUGGGCAACAUUCCGAGGGGACCGUCCCCUCGGUAAUGGCGAAUGGGACCCA [A16C G34U]	0.0489
GGCCGGCAUGGUCCCAGCCUCCUCGUUAGCGCCGGCUGGGCAACAUUCCGAGGGGACCGUCCCCUCGGUAAUGGCGAAUGGGACCCA [C26U G28A]	0.234
GGCCGGCAUGGUCCCAGCCUCCUCGCUGGCGCCGGCUGGGCAAAAUUCCGAGGGGACCGUCCCCUCGGUAAUGGCGACUGGGACCCA [C44A A78C]	0.0811
GGCCGGCAUGGUCCCUGCCUCCUCGCUGGCGCCGGCUGGGCAAGAUUCCGAGGGGACCGUCCCCUCGGUAAUGGCGAAUGGGACCCA [A16U C44G]	0.604
GGCCGGCAUGGUCCCAGCCUCCUCGCUGGCGCCGGCUGGGCAACAUCCCGAGGGGACCGUCCCCUCGGUCAUGGCGAAUGGGACCCA [U47C A70C]	0.739
GGCCGGCAUGGUCCCAGCCUCCUCGCUGGCGCCGGCUGGGCAACGUUCCGAGGGGACAGUCCCCUCGGUAAUGGCGAAUGGGACCCA [A45G C58A]	1.18
